From article PMC9898259, “Cryo-EM structure supports a role of AQP7 as a junction protein” (Nature Communications, 2023)

Biological target: the molecule itself
Assay: cryo-EM structure; single-particle cryo-EM; 1 mg/mL AQP7 in GDN on Quantifoil Cu R1.2/1.3 holey carbon grids, 4 °C; octamer = dimer of tetramers; D4 (2.55 Å) and C1 (3.0 Å) reconstructions

B1: Human aquaglyceroporin 7 (AQP7), full-length, C-terminal poly-histidine tag (natural protein, UniProt O14520 1-342, looked up)
chain: MVQASGHRRSTRGSKMVSWSVIAKIQEILQRKMVREFLAEFMSTYVMMVFGLGSVAHMVLNKKYGSYLGVNLGFGFGVTMGVHVAGRISGAHMNAAVTFANCALGRVPWRKFPVYVLGQFLGSFLAAATIYSLFYTAILHFSGGQLMVTGPVATAGIFATYLPDHMTLWRGFLNEAWLTGMLQLCLFAITDQENNPALPGTEALVIGILVVIIGVSLGMNTGYAINPSRDLPPRIFTFIAGWGKQVFSNGENWWWVPVVAPLLGAYLGGIIYLVFIGSTIPREPLKLEDSVAYEDHGITVLPKMGSHEPTISPLTPVSVSPANRSSVHPAPPLHESMALEHF
notes: Aquaporin-7 (aquaglyceroporin 7), human, full-length gene; residues 25-277 modelled in the 2.55 Å map; Tetramers that pair into an octamer (dimer of tetramers) in the cryo-EM structure; only ~47% of all particles were in the octamer class; also called human AQP7; source: P. pastoris GS115 aqy1Δ::HIS4 agp1Δ::NatMX, purified (Ni-NTA, size-exclusion chromatography) in GDN
stoichiometry N: 8
